# Laboratory results reported in the nanobody polyreactivity screen of Harvey et al. (2022).
# Test: yeast display, Sf9 membrane polyspecificity reagent, FACS + sequencing; frameworks hold sequencing errors
# Outline: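 A synthetic nanobody library was expressed on Saccharomyces cerevisiae BJ5465 by galactose induction for 36–48 hours. The library was stained for 1 hour at 4 °C with 10% biotinylated, detergent-solubilized Sf9 membrane reagent and enriched with streptavidin microbeads before FACS. Low and high (top ~1%) gates were set on anti-HA fluorescence for expression and streptavidin fluorescence for reagent binding, and each polyreactivity label reflects the gate of origin.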
row,Sequence,polyreactivity (PSR sort gate)
1,QVQLVESGGGLVQAGGSLRLSCAASGIIIDSNAMGWYRQAPGKERELVADITSGGSTKYADSVKGRFTISRDNAKNTVYLQMNSLKPEDTAVYYCNADFRPADQWSYFYEMDSWGQGTQVTVSS,low polyreactivity
2,QVQLVESGGGLVQAGGSLRLSCAASGIIIDTNAMGWYRQAPGTERELVASISKRGGSTYYADSVKGRFTISRDNAKNTVYLQMNSLKPEDTAVYYCNALRRRQYHDDYWGQGTQVTVSS,high polyreactivity
3,QVQLVESGGGLVQAGGSLRLSCAASGIIIDYYAMGWYRQAPGKERELVAAITSGGSTSYADSVKGRFTISRDNAKNTVYLQMNSLKPEDTAVYYCNTEPSGYESGYWGQGTQVTVSS,low polyreactivity
4,QVQLVESGGGLVQAGGSLRLSCAASGIIIDYYTMGWYRQAPGKERELVAAINKSGGSTYADSVKGRFTISRDNAKNTVYLQMKSLKPEDTAVYYCAAEVDYSDWPEYARKYYYWGQGTQVTVSS,low polyreactivity
5,QVQLVESGGGLVQAGGSLRLSCAASGIIIDYYTMGWYRQAPGKERELVAAINKSGGSTYADSVKGRFTISRDNAKNTVYLQMNSLKPEDTAVYYCAAEVDYSYSPEYARKYYYWGQGTQVTVSS,low polyreactivity
6,QVQLVESGGGLVQAGGSLRLSCAASGIIIQINAMGWYRQAPGKERELVAAITIDGTTNYADSVKGRFTISRDNAKNTVYLQMNSLKPEDTAVYYCARRRSVYVWEPYQYDYWGQGTQVTVSS,low polyreactivity
7,QVQLVESGGGLVQAGGSLRLSCAASGIIIRYYGMGWYRQAPGKERELVARIRWTGGSTYYADSVKGRFTISRDNAKNTVYLQMNSLKPEDTAVYYCAAQWKYRQSYLDYYWGQGTQVTVSS,low polyreactivity
8,QVQLVESGGGLVQAGGSLRLSCAASGIILGKNAMGWYRQAPGKERELVASITSGAGITYYADSVKGRFTISRDTAKNTVYLQMNSLKPEDTAVYYCNTYPYLWGQGTQVTVSS,low polyreactivity
9,QVQLVESGGGLVQAGGSLRLSCAASGIILGPYAMGWYRQAPGKERELVAAISWRGGSTYYADSVKGRFTISRDNAKNTVYLQMNSLKPEDTAVYYCATASRTSRTGWAGYYWGQGTQVTVSS,high polyreactivity
10,QVQLVESGGGLVQAGGSLRLSCAASGIILPYYVMGWYRQAPGKEREFVADITWSGGSTYYADSVKARFTISRDNAKNTVYLQMNSLKPEDTAVYYCAAEGQWYYFFDMDYWGQGTQVTVSS,high polyreactivity
11,QVQLVESGGGLVQAGGSLRLSCAASGIILREYTMGWYRQAPGKERELVAAISGSGGSTYYADSVKGRFTISRDNAKNTVYLQMNSLKPDDTAVYYCNAVIAAKARDAVVGSGMDYWGQGTQVTVSS,high polyreactivity
12,QVQLVESGGGLVQAGGSLRLSCAASGIILSLYAMGWYRQAPGKERELVATIRFSGGSTYYADSVKGRFTISRDNAKNTVYLQMNSLKPEDTAVYYCNKHLATTFTVSRFDYWGQGTQVTVSS,low polyreactivity
13,QVQLVESGGGLVQAGGSLRLSCAASGIILTEYAMGWYRQAPGKERELVAAINRVGSTNYADSVKGRFTISRDNAKNTVYLQMNSLKPEDTAVYYCAAGTYYNDYDYWGQGTQVTVSS,low polyreactivity
14,QVQLVESGGGLVQAGGSLRLSCAASGIILVQYVMGWYRQAPGKERELVASISRTGGSTYYADSVKGRFTISRDNAKNTVYLQMNSLKPEDTAVYYCAALAYRYSYPRGYWGQGTQVTVSS,high polyreactivity
15,QVQLVESGGGLVQAGGSLRLSCAASGIILYFYDMGWYRQAPGKERELVAVITGGGGSTYYADSVKGRFTISRDNAMNTVYLQMNSLKPEDTAVYYCAALPWFPDEEYDYWGQGTQVTVSS,high polyreactivity
16,QVQLVESGGGLVQAGGSLRLSCAASGIILYVYGMGWYRQAPGKERELVATITWSDGGTYYADSVKGRFTISRDNAKNTVYLQMNSLKPEDTAVYYCNVVVVNGWVTTPGYDYWGQGTQVTVSS,low polyreactivity
17,QVQLVESGGGLVQAGGSLRLSCAASGIILYYNAMGWYRQAPGKERALVAAITTSGVSTYYADSVKGRFTISRDNAKNTVYLQMNSLKPEDTAVYYCNADYLYGRYTYDYWGQGTQVTVSS,low polyreactivity
18,QVQLVESGGGLVQAGGSLRLSCAASGIILYYYAMGWYRQAPGKERELVAAINWSGGSTSYADSVKGRFTISRDNAKNTVYLQMNSLKPEDTAVYYCAARLGSWHYQVWNDKYEYWGQGTQVTVSS,high polyreactivity
19,QVQLVESGGGLVQAGGSLRLSCAASGIILYYYAMGWYRQAPGKERELVASISRGDSTNYADSVKGRFTISRDNAKNTVYLQMNSLKPEDTAVYCNKDYLPSLYRGFDYWGQGTQVTVSS,low polyreactivity
20,QVQLVESGGGLVQAGGSLRLSCAASGIIQPRYAMGWYRQAPGKERELVAAISRGGGTYYADSVKGRFTISRDNAKNTVYLQMNSLIPEYSAVYNCASAYVFVGSSHYYWGQGTQVTVSS,high polyreactivity
21,QVQLVESGGGLVQAGGSLRLSCAASGIISSVYAMGWYRQAPGKERELVAAISGSGGSTYYADSVKGRFTISRDNAKNTVYLQMNSLKPEDTAVYYCAIGYQYQGNSYGYWGQGTQVNVSS,low polyreactivity
22,QVQLVESGGGLVQAGGSLRLSCAASGIISSVYAMGWYRQAPVKERELVAAISGSGGSTYYADSVKGRFTISRDNAKNTVYLQMNSLTPEDTAVYYCAKGYQYQGNSYGYWGQGTQVTVSS,low polyreactivity

row,Sequence,polyreactivity (PSR sort gate)
1,QVQLVESGGGLVQAGGSLRLSCAASGIISYLYAMGCYRQAPGKEREWVAVIRTSDAITYYADSVKGRFTISRDNAKNTVYLQMNSLKPQDTAVYYCAAAGYAWWGEYEYWGQGTLVTVSS,high polyreactivity
2,QVQLVESGGGLVQAGGSLRLSCAASGIISYRYGMGWYRQAPGKEGELVAAISWSGGSTYYADSVKGRFTISRDNAKNTVYLQMNSRKPEDTAVYYCAAYWRQAGVFKIYDYWGQGTQVTVSS,high polyreactivity
3,QVQLVESGGGLVQAGGSLRLSCAASGIIVYYYAMGWYRPAPGKERELVAAISTSGTRTFYADSVKGRFTISRDNAKKTVYLQMNSLKPEDTAVYYCAARIYKPQRCTSLYRTSGYWGQGTQVTVSS,high polyreactivity
4,QVQLVESGGGLVQAGGSLRLSCAASGIIYKYAMGWYRQAPGKERELVAAISSGASTNYADSVKGRFTISRDNAKNTVYLQMNSLKPEDTAVYYCNVTTGASFEFDYWGQGTQVTVSS,low polyreactivity
5,QVQLVESGGGLVQAGGSLRLSCAASGIIYRQNAMGWYRQATRKEREFVAAISSGGNTYYADSVKGRFTISRDNAKNTVYLQMNSLKPEDTGFYYCAADVEDRYHRAWFDYWGQGTKVTVSS,low polyreactivity
6,QVQLVESGGGLVQAGGSLRLSCAASGIIYWVNAMGWYRQAPGKERELVAVINRGTYYADSVKGRFTISRDNAKNTVYLQMNSLKPEDTAVYYRYAYTSTTEYDYWGLGTQVTVSS,low polyreactivity
7,QVQLVESGGGLVQAGGSLRLSCAASGILSNYYAMGWYRQAPGKERELVASIRLSGGRTYYADSVKGRFTISRDNAKNTVYLQMNSLKPEDTAVYYCAAGTRRTYSKFDYWGQGTQVTVSS,high polyreactivity
8,QVQLVESGGGLVQAGGSLRLSCAASGINFCWYAMGWYRQAPGKERELVAAISGTGGSTYYADSVKGRFTISRDNAKNTVYLQMNSLKPEDTAVYYCAARGKSSSYYDYDYCGQGTQVTVSS,low polyreactivity
9,QVQLVESGGGLVQAGGSLRLSCAASGINFDDNTMGWYRQAPGKERELLAAISSSGGSTYYADSVKGRFTISRDNAKNTVYFQMNSLNPEDTAVYYCAAADYYTYPYIVYRNYPEFDYWGQGTQVTVSS,low polyreactivity
10,QVQLVESGGGLVQAGGSLRLSCAASGINFDGNVMGWYRPAPRKEREFFASISISGGSTSYADSVKGRFTISRDNAKNTVYLQMNSLKPEDTAVYYCNTDVCYGRVWRWRFHGDYWGQGTQVTVSS,low polyreactivity
11,QVQLVESGGGLVQAGGSLRLSCAASGINFGRYAMGWYRQAPGKERELVATITVNGGRTYYADSVKGRFTISRDNAKNTVYLQMNSLKPEDTAVYYCNAEVPGHYFDGWYFYDFDYWGQGTQVTVSS,low polyreactivity
12,QVQLVESGGGLVQAGGSLRLSCAASGINFGYYAMGWYRQAPGKERELVAAISRRGGSTYYADSVKGRFTISRDNAKNTVYLQMNSLKPEDTAVYYCYKRRAAGGFPYVYWGQGTQVTVSS,high polyreactivity
13,QVQLVESGGGLVQAGGSLRLSCAASGINFIYNAMGWYRQAPGKERELVATISRRGGSTYYADSVKGRFTISRDNAKNTVYLQMNSLKPEVTAVYYSARDVGAGSKISRLSSYNYWGQGTQVTVSS,low polyreactivity
14,QVQLVESGGGLVQAGGSLRLSCAASGINFNKYAMGWYRQAPGKEREFVAAITYRGGSTYYADSVKGRFTISRDNAKNTVYFQMNSLKPEDTAVYYCAARRITTYYYWGQGTQVTVSS,high polyreactivity
15,QVQLVESGGGLVQAGGSLRLSCAASGINFVYYAKGWYRPAAGKERELVAGITVNGGNTYYADSVKGRFTLSRDNAKNTVYLQMNSLKPEDTAVYYCNADYYWVLGVFDYWGHGTQVTVSS,low polyreactivity
16,QVQLVESGGGLVQAGGSLRLSCAASGINFYAYAMGWYRKAPGKERELVAAITFSAVSTYYADSVKGRFTISRDNAKNSVYLQMNSLKPEDTAVYYCAAEAYKQGVWDYDYWGQGTQVTVSS,low polyreactivity
17,QVQLVESGGGLVQAGGSLRLSCAASGISFNSYTMGGYRQAPGKERELVAAITASGGTTRYADSVKGRFTISRDNAKNTVYLQMNSLKPEYTAVYYCNALPFRYGKRRGYWGQGTQVTVSS,low polyreactivity
18,QVQLVESGGGLVQAGGSLRLSCAASGISFYSYTMGWYIQAPGKERELVAAIRGSDGSTYYADSVKGRFTLSRDNAKNTVYLQMNSLKPEVTAVYYCNRKFYWRRDYWGQGTQVTVSS,high polyreactivity
19,QVQLVESGGGLVQAGGSLRLSCAASGITCTFNTMGWYRQAPGKERELVAGITNGGSTYYADSVKGRFTISRDNAKNTVYLQMNSLKPEDTAVYYCNAQRRLRYGWFGPYDYWGQGTQVTVSS,low polyreactivity
20,QVQLVESGGGLVQAGGSLRLSCAASGITFAFYDKGWYRQPPGKERELVAAISYSGGGTYYADSVKGRFTISRDNAKNNVYLQMNSLKPEDTAVYYCAADPKTHPLFGEDYWGQGTQVTVSS,low polyreactivity
21,QVQLVESGGGLVQAGGSLRLSCAASGITFALNAMGWYRQAPGKERELVAAISWSGDSTYYADSVKGRFTISRDNAKNTVYLQMNSLKPEDTAVYYCAAVAYLNWTPHYYWGQGTQVTVSS,low polyreactivity
